US20060263361A1
Where “and” joins values, the source holds several entries; their conditions need not be identical. Equal values may be shown once. One block for each substance: values may come before it.

Legend:
[1] = target: recombinant KIR2DL3 protein (entire extracellular domain, produced in E. coli, immobilized) (human) (UniProt P43628); experiment: Biacore, KIR2DL3 chip; first Ab DF200 vs competitor (second Ab) 1-6F5
immobilized KIR 2DS1 [2] = target: immobilized KIR 2DS1 (UniProt Q14954); experiment: Biacore, KIR2DS1 chip; second Ab injected alone
[3] = target: recombinant KIR2DL1 protein (entire extracellular domain, produced in E. coli, immobilized) (human) (UniProt P43626); experiment: Biacore, KIR2DL1 chip; second Ab injected alone
[4] = target: recombinant KIR2DL1 protein (entire extracellular domain, produced in E. coli, immobilized) (human) (UniProt P43626); experiment: Biacore, KIR2DL1 chip; first Ab DF200 vs competitor (second Ab) 1-4F1
immobilized KIR 2DS1 [5] = target: immobilized KIR 2DS1 (UniProt Q14954); experiment: Biacore, KIR2DS1 chip; first Ab DF200 vs competitor (second Ab) Pan2D
[6] = target: recombinant KIR2DL1 protein (entire extracellular domain, produced in E. coli, immobilized) (human) (UniProt P43626); experiment: Biacore, KIR2DL1 chip; first Ab DF200 vs competitor (second Ab) EB6
[7] = target: recombinant KIR2DL1 protein (entire extracellular domain, produced in E. coli, immobilized) (human) (UniProt P43626); experiment: Biacore, KIR2DL1 chip; first Ab DF200 vs competitor (second Ab) 1-7F9
immobilized KIR 2DS1 [8] = target: immobilized KIR 2DS1 (UniProt Q14954); experiment: Biacore, KIR2DS1 chip; first Ab DF200 vs competitor (second Ab) 1-4F1
[9] = target: recombinant KIR2DL1 protein (entire extracellular domain, produced in E. coli, immobilized) (human) (UniProt P43626); experiment: Biacore, KIR2DL1 chip; first Ab DF200 vs competitor (second Ab) Pan2D
[10] = target: recombinant KIR2DL1 protein (entire extracellular domain, produced in E. coli, immobilized) (human) (UniProt P43626); experiment: Biacore, KIR2DL1 chip; first Ab DF200 vs competitor (second Ab) 1-6F1
[11] = target: recombinant KIR2DL3 protein (entire extracellular domain, produced in E. coli, immobilized) (human) (UniProt P43628); experiment: Biacore, KIR2DL3 chip; first Ab DF200 vs competitor (second Ab) 1-7F9
[12] = target: recombinant KIR2DL3 protein (entire extracellular domain, produced in E. coli, immobilized) (human) (UniProt P43628); experiment: Biacore, KIR2DL3 chip; first Ab DF200 vs competitor (second Ab) 1-6F1
[13] = target: recombinant KIR2DL1 protein (entire extracellular domain, produced in E. coli, immobilized) (human) (UniProt P43626); experiment: Biacore, KIR2DL1 chip; first Ab DF200 vs competitor (second Ab) 1-6F5
immobilized KIR 2DS1 [14] = target: immobilized KIR 2DS1 (UniProt Q14954); experiment: Biacore, KIR2DS1 chip; first Ab DF200 vs competitor (second Ab) 1-7F9
[15] = target: recombinant KIR2DL3 protein (entire extracellular domain, produced in E. coli, immobilized) (human) (UniProt P43628); experiment: Biacore, KIR2DL3 chip; first Ab DF200 vs competitor (second Ab) Pan2D
[16] = target: recombinant KIR2DL3 protein (entire extracellular domain, produced in E. coli, immobilized) (human) (UniProt P43628); experiment: Biacore, KIR2DL3 chip; first Ab DF200 vs competitor (second Ab) 1-4F1
[17] = target: recombinant KIR2DL3 protein (entire extracellular domain, produced in E. coli, immobilized) (human) (UniProt P43628); experiment: Biacore, KIR2DL3 chip; first Ab DF200 vs competitor (second Ab) gl183
[18] = target: recombinant KIR2DL1 protein (entire extracellular domain, produced in E. coli, immobilized) (human) (UniProt P43626); experiment: Biacore, KIR2DL1 chip; first Ab EB6 vs competitor (second Ab) Pan2D
[19] = target: recombinant KIR2DL1 protein (entire extracellular domain, produced in E. coli, immobilized) (human) (UniProt P43626); experiment: Biacore, KIR2DL1 chip; first Ab EB6 vs competitor (second Ab) EB6 (self)
[20] = target: recombinant KIR2DL1 protein (entire extracellular domain, produced in E. coli, immobilized) (human) (UniProt P43626); experiment: Biacore, KIR2DL1 chip; first Ab EB6 vs competitor (second Ab) 1-6F1
[21] = target: recombinant KIR2DL1 protein (entire extracellular domain, produced in E. coli, immobilized) (human) (UniProt P43626); experiment: Biacore, KIR2DL1 chip; first Ab EB6 vs competitor (second Ab) DF200
[22] = target: recombinant KIR2DL1 protein (entire extracellular domain, produced in E. coli, immobilized) (human) (UniProt P43626); experiment: Biacore, KIR2DL1 chip; first Ab EB6 vs competitor (second Ab) 1-4F1
[23] = target: recombinant KIR2DL1 protein (entire extracellular domain, produced in E. coli, immobilized) (human) (UniProt P43626); experiment: Biacore, KIR2DL1 chip; first Ab EB6 vs competitor (second Ab) 1-7F9
[24] = target: recombinant KIR2DL3 protein (entire extracellular domain, produced in E. coli, immobilized) (human) (UniProt P43628); experiment: Biacore, KIR2DL3 chip; second Ab injected alone
[25] = target: recombinant KIR2DL3 protein (entire extracellular domain, produced in E. coli, immobilized) (human) (UniProt P43628); experiment: Biacore, KIR2DL3 chip; first Ab gl183 vs competitor (second Ab) DF200
[26] = target: recombinant KIR2DL3 protein (entire extracellular domain, produced in E. coli, immobilized) (human) (UniProt P43628); experiment: Biacore, KIR2DL3 chip; first Ab gl183 vs competitor (second Ab) 1-7F9
[27] = target: recombinant KIR2DL3 protein (entire extracellular domain, produced in E. coli, immobilized) (human) (UniProt P43628); experiment: Biacore, KIR2DL3 chip; first Ab gl183 vs competitor (second Ab) 1-4F1
[28] = target: recombinant KIR2DL3 protein (entire extracellular domain, produced in E. coli, immobilized) (human) (UniProt P43628); experiment: Biacore, KIR2DL3 chip; first Ab gl183 vs competitor (second Ab) Pan2D
[29] = target: recombinant KIR2DL3 protein (entire extracellular domain, produced in E. coli, immobilized) (human) (UniProt P43628); experiment: Biacore, KIR2DL3 chip; first Ab gl183 vs competitor (second Ab) 1-6F1
[30] = target: recombinant KIR2DL1 protein (entire extracellular domain, produced in E. coli, immobilized) (human) (UniProt P43626); experiment: Biacore, KIR2DL1 chip; first Ab Pan2D vs competitor (second Ab) EB6
[31] = target: recombinant KIR2DL1 protein (entire extracellular domain, produced in E. coli, immobilized) (human) (UniProt P43626); experiment: Biacore, KIR2DL1 chip; first Ab Pan2D vs competitor (second Ab) 1-4F1
immobilized KIR 2DS1 [32] = target: immobilized KIR 2DS1 (UniProt Q14954); experiment: Biacore, KIR2DS1 chip; first Ab Pan2D vs competitor (second Ab) DF200
[33] = target: recombinant KIR2DL1 protein (entire extracellular domain, produced in E. coli, immobilized) (human) (UniProt P43626); experiment: Biacore, KIR2DL1 chip; first Ab Pan2D vs competitor (second Ab) 1-6F5
[34] = target: recombinant KIR2DL3 protein (entire extracellular domain, produced in E. coli, immobilized) (human) (UniProt P43628); experiment: Biacore, KIR2DL3 chip; first Ab Pan2D vs competitor (second Ab) 1-6F1
[35] = target: recombinant KIR2DL3 protein (entire extracellular domain, produced in E. coli, immobilized) (human) (UniProt P43628); experiment: Biacore, KIR2DL3 chip; first Ab Pan2D vs competitor (second Ab) DF200
[36] = target: recombinant KIR2DL3 protein (entire extracellular domain, produced in E. coli, immobilized) (human) (UniProt P43628); experiment: Biacore, KIR2DL3 chip; first Ab Pan2D vs competitor (second Ab) gl183
[37] = target: recombinant KIR2DL3 protein (entire extracellular domain, produced in E. coli, immobilized) (human) (UniProt P43628); experiment: Biacore, KIR2DL3 chip; first Ab Pan2D vs competitor (second Ab) 1-7F9
[38] = target: recombinant KIR2DL1 protein (entire extracellular domain, produced in E. coli, immobilized) (human) (UniProt P43626); experiment: Biacore, KIR2DL1 chip; first Ab Pan2D vs competitor (second Ab) 1-7F9
immobilized KIR 2DS1 [39] = target: immobilized KIR 2DS1 (UniProt Q14954); experiment: Biacore, KIR2DS1 chip; first Ab Pan2D vs competitor (second Ab) 1-7F9
[40] = target: recombinant KIR2DL3 protein (entire extracellular domain, produced in E. coli, immobilized) (human) (UniProt P43628); experiment: Biacore, KIR2DL3 chip; first Ab Pan2D vs competitor (second Ab) 1-6F5
[41] = target: recombinant KIR2DL1 protein (entire extracellular domain, produced in E. coli, immobilized) (human) (UniProt P43626); experiment: Biacore, KIR2DL1 chip; first Ab Pan2D vs competitor (second Ab) 1-6F1
[42] = target: recombinant KIR2DL1 protein (entire extracellular domain, produced in E. coli, immobilized) (human) (UniProt P43626); experiment: Biacore, KIR2DL1 chip; first Ab Pan2D vs competitor (second Ab) DF200
[43] = target: recombinant KIR2DL3 protein (entire extracellular domain, produced in E. coli, immobilized) (human) (UniProt P43628); experiment: Biacore, KIR2DL3 chip; first Ab Pan2D vs competitor (second Ab) 1-4F1
immobilized KIR 2DS1 [44] = target: immobilized KIR 2DS1 (UniProt Q14954); experiment: Biacore, KIR2DS1 chip; first Ab Pan2D vs competitor (second Ab) 1-4F1

Chain of recombinant KIR2DL1 protein (entire extracellular domain, produced in E. coli, immobilized) (human) (P43626 22-245): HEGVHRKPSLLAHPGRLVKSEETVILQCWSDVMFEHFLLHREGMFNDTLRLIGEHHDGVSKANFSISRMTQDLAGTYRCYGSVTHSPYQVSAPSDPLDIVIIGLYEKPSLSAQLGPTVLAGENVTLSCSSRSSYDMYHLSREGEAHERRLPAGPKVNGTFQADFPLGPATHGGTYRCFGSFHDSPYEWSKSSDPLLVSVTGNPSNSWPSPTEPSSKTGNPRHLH
Chain of recombinant KIR2DL3 protein (entire extracellular domain, produced in E. coli, immobilized) (human) (P43628 22-245): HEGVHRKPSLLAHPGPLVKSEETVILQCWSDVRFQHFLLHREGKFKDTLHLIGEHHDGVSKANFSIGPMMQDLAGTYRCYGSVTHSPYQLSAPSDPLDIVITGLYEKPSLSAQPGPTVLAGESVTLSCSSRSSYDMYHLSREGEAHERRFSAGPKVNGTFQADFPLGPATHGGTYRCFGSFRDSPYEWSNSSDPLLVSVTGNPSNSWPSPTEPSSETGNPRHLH
Chain of immobilized KIR 2DS1 (Q14954 22-245 limits assumed): as the sequence (P43626 22-245) above, with T70K, V90L, L114P, P154T, D163N, H182R, K216E counted along it

percent inhibition of second antibody binding [1]: 4%
RU, second antibody alone (immobilized KIR 2DS1 [2]): 900 RU
RU, second antibody alone [3]: 600 RU and 350 RU
percent inhibition of second antibody binding [4]: 92%
percent inhibition of second antibody binding (immobilized KIR 2DS1 [5]): 70%
percent inhibition of second antibody binding [6]: 90%
percent inhibition of second antibody binding [7]: 27%
percent inhibition of second antibody binding (immobilized KIR 2DS1 [8]): 87%
percent inhibition of second antibody binding [9]: 80%
percent inhibition of second antibody binding [10]: 15%
percent inhibition of second antibody binding [11]: 62%
percent inhibition of second antibody binding [12]: 16%
percent inhibition of second antibody binding [13]: 15%
percent inhibition of second antibody binding (immobilized KIR 2DS1 [14]): 15%
percent inhibition of second antibody binding [15]: 75%
percent inhibition of second antibody binding [16]: 75%
percent inhibition of second antibody binding [17]: 20%
Substance: monoclonal antibody DF200 produced by hybridoma DF200

percent inhibition of second antibody binding [18]: 40%
RU, second antibody alone [3]: 460 RU and 260 RU
percent inhibition of second antibody binding [19]: 57%
percent inhibition of second antibody binding [20]: 23%
percent inhibition of second antibody binding [21]: 60%
percent inhibition of second antibody binding [22]: 48%
percent inhibition of second antibody binding [23]: 65%
Substance: EB6 (IgG1 anti KIR2DL1) (antibody)

RU, second antibody alone [24]: 1240 RU and 800 RU and 620 RU
percent inhibition of second antibody binding [25]: 8%
percent inhibition of second antibody binding [26]: 76%
percent inhibition of second antibody binding [27]: 75%
percent inhibition of second antibody binding [28]: 40%
percent inhibition of second antibody binding [29]: 18%
Substance: GL183 (IgG1 anti KIR2DL3) (antibody)

percent inhibition of second antibody binding [30]: 90%
percent inhibition of second antibody binding [31]: 95%
percent inhibition of second antibody binding (immobilized KIR 2DS1 [32]): 100%
percent inhibition of second antibody binding [33]: 13%
percent inhibition of second antibody binding [34]: 8%
RU, second antibody alone (immobilized KIR 2DS1 [2]): 1350 RU
RU, second antibody alone [3]: 545 RU and 475 RU
percent inhibition of second antibody binding [35]: 95%
RU, second antibody alone [24]: 2400 RU and 870 RU and 990 RU
percent inhibition of second antibody binding [36]: 85%
percent inhibition of second antibody binding [37]: 15%
percent inhibition of second antibody binding [38]: 2%
percent inhibition of second antibody binding (immobilized KIR 2DS1 [39]): 45%
percent inhibition of second antibody binding [40]: 18%
percent inhibition of second antibody binding [41]: 12%
percent inhibition of second antibody binding [42]: 90%
percent inhibition of second antibody binding [43]: 68%
percent inhibition of second antibody binding (immobilized KIR 2DS1 [44]): 100%
Substance: monoclonal antibody NKVSF1
